Experimental data: publication PMC12501149 (2025)
Where no end group is shown, it is not given here.

B1: fzd48 (designed binder)
chain: KEELEKMIEELKKLIENGDKENFIKLFDEAFKKAKESRDPRTIASVWTLVLEFKNKN
B2: ss2cspg18 (designed binder)
chain: MDEKVEKLKECLEKLKEKGDIKGVIDTERAIRICERSRHKEFCEWAIEKCENRIKES
modifications: disulfide (positions not given here)
B3: fzd13 (designed binder)
chain: AEKEVQELIDKALNTPDPKVASKYIISAVYVAAKARDPSLFQSALDTAKKL
B4: cspg4 (designed minibinder) (designed binder)
chain: ENKLARAVVTVNKSWLATQLFVRLYRLCKAGDPRCEEVAEKLRKVLELQGVPETDIELVVEVAKG

Assays:
[1] = target: TcdB 1285-1804 with C-terminal Avitag (RBD toxin fragment), biotinylated (Clostridioides difficile, UniProt P18177 1285-1804); assay: SPR
[2] = target: Clostridioides difficile toxin B (TcdB), full-length TcdB1 (VP10463) (Clostridioides difficile, UniProt P18177 1-2366); assay: SPR
Clostridioides difficile toxin B (TcdB), full-length TcdB1 (VP10463), sequence (P18177 whole entry): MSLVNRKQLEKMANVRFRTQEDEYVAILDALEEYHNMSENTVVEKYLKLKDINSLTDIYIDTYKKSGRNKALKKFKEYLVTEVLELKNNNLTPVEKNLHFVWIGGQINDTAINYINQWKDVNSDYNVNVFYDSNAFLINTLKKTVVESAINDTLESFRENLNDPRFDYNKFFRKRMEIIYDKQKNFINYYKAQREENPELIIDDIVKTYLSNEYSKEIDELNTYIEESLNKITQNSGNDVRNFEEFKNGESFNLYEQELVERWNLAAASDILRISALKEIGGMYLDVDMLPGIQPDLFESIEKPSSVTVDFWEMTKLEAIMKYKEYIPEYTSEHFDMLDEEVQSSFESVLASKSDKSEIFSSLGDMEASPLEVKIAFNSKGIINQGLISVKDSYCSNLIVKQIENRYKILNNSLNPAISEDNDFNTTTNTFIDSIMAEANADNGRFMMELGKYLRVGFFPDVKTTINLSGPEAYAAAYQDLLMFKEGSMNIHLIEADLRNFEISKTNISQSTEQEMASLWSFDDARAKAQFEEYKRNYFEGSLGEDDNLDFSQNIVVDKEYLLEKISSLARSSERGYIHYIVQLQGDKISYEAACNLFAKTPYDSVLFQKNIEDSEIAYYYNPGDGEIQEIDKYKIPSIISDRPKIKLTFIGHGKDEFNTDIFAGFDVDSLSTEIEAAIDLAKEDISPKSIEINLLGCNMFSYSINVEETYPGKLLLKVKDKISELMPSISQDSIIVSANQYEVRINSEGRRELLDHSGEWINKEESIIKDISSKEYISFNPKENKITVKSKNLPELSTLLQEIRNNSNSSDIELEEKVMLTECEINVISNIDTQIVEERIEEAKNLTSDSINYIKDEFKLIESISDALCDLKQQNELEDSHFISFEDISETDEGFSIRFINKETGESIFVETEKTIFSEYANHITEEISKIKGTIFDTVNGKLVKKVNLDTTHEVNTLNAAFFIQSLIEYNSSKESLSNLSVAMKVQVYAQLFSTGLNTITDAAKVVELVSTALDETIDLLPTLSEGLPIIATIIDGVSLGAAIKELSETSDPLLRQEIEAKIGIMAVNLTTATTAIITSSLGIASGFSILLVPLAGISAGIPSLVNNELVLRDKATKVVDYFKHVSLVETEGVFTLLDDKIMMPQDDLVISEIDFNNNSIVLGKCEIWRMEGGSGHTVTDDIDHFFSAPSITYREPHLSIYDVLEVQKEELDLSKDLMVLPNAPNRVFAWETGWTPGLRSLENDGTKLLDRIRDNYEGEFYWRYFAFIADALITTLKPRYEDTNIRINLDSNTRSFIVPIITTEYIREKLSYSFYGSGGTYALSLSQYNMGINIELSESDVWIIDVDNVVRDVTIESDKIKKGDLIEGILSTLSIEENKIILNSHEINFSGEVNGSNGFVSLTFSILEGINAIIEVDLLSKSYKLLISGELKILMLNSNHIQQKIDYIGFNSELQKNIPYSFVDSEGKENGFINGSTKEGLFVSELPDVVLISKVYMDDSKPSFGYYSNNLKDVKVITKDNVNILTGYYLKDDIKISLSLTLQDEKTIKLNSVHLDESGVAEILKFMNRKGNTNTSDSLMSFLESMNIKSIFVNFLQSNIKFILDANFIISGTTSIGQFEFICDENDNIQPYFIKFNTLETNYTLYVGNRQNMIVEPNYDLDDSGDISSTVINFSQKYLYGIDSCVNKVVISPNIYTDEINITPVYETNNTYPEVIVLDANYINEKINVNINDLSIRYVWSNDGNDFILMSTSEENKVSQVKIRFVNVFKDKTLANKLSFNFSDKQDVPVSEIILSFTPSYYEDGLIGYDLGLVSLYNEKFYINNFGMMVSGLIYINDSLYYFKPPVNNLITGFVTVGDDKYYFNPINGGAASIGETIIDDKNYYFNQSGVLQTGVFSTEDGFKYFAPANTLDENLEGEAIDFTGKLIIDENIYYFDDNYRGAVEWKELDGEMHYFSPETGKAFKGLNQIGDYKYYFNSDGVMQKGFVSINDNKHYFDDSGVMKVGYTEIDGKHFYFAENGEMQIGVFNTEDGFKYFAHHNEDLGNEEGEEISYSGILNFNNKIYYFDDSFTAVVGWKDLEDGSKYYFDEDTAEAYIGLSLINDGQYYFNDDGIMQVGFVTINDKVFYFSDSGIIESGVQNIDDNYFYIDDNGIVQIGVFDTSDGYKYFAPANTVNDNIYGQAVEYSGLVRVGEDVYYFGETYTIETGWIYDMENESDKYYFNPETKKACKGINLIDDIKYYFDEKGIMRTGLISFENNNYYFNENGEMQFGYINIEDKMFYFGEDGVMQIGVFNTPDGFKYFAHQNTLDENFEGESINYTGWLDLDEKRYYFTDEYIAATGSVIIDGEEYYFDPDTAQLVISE

TcdB 1285-1804 with C-terminal Avitag (RBD toxin fragment), biotinylated, sequence (P18177 1285-1804): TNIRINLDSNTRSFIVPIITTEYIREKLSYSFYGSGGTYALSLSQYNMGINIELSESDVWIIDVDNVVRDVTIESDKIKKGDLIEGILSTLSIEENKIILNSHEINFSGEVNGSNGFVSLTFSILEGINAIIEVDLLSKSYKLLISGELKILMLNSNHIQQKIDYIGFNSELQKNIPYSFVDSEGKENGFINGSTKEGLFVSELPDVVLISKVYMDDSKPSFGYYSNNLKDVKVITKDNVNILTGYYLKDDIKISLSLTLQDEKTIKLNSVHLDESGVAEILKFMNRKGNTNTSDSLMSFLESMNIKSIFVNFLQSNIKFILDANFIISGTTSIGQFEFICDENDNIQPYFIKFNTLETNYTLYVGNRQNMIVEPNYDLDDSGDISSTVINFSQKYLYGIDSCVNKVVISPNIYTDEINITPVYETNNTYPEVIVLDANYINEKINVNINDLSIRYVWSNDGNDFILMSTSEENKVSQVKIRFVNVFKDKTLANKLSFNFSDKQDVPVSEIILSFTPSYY

| Binder | Kd [1] | Kd [2] |
| --- | --- | --- |
| B1 | < 10 pM |  |
| B2 |  | 870 pM |
| B3 | 5.6 pM |  |
| B4 |  | 2000 pM |
